Measured values from patent US20250206828A1, “ANTI-ADENOSINE RECEPTOR (A2aR) ANTIBODIES AND THE USE THEREOF” (Adept Therapeutics Inc., priority 2022, published 2025).

How the values were obtained:
[1] = test system: human PBMCs (CD4 and CD8 T cells); assay: Restoration of CD25 and CD69 activation markers on NECA-suppressed CD4 and CD8 T cells; type: cell-based; conditions: test substance 2 μg/ml
Procedure: (§1) Two hundred thousand (2×10^5) human peripheral blood mononuclear cells (PBMCs) human PBMC in complete IMDM medium were aliquoted into each well in a 96-well plate and the cells in the 96-well plate were pre-incubated with antibodies or small molecule inhibitors at indicated concentration for 90 minutes, followed by addition of T cell activator anti-CD3/28 dynabeads (Gibco, Cat #11132D) at ratio of 1:4 (Beads: PBMC, v/v) and NECA (DiscoverX, Cat #92-1191, final concentration […]). Cells were cultured in an incubator at 37° C., 5% CO2 for 24 hours. Cells were then collected and stimulated with anti-CD3/28 dynabeads in the presence of GolgiPlug™ Protein Transport Inhibitor (BD Biosciences, Cat #555028) according to manufacturer's manual for 4 hours. Thereafter, cells were incubated with human TruStain FcX block (Biolegend, Cat #422302) and True-Stain monocyte blocker (Biolegend, Cat #426103) for 15 minutes according the manufacturer's manual, and cells were then stained with surface markers PE-anti-CD4 (Biolegend, Cat #300550), PerCP-cy5.5-anti-CD8 (Biolegend, Cat #301032), APC/cy7-anti-CD3 (Biolegend, Cat #300426) and PE/cy7-anti-CD56 (Biolegend, Cat #362509), PE/cy7-anti-CD56 (Biolegend, Cat #362509), BV711-anti-CD25 (Biolegend, Cat #302636) and BV605-anti-CD69 (Biolegend, Cat #31938 After wash with FACS buffer, cells were stained with BV421-anti-IFN-γ (BD Bioscience, Cat #562988) and APC anti-IL-2 (BD Bioscience, cat #551383) using intracellular cytokine staining kit (BD Biosciences, cat #555028) following manufacturer's instruction. Stained samples were analyzed on FACSAria III machine. Data were analyzed using Flowjo software.

[2] = test system: human PBMCs (CD4 T, CD8 T, NK cells); assay: Restoration of IFN-γ and IL-2 production of NECA-suppressed T cells and NK cells (intracellular cytokine staining); type: cell-based; conditions: NECA; test substance 2 μg/ml
Procedure: as §1

[3] = molecular target: human adenosine A2A receptor (A2aR) (human, UniProt P29274 1-412); assay: flow cytometry, HEK293-hA2aR cells, supernatant 1 ug/ml
human adenosine A2A receptor (A2aR), sequence (P29274 whole entry): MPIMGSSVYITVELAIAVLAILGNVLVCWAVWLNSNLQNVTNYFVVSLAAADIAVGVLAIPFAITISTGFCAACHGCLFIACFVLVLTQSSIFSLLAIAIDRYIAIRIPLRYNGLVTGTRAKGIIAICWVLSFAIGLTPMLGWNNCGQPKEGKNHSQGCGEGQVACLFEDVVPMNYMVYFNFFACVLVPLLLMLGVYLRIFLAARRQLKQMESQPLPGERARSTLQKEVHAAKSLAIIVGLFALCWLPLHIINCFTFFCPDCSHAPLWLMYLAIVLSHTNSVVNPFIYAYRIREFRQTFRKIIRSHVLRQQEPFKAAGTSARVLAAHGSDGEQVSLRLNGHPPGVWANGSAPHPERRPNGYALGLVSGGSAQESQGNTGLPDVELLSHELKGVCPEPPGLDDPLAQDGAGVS

human A2aR = human A2aR (Homo sapiens, UniProt P29274); assay: Binding of humanized anti-A2aR antibodies in transfected Expi293F cell supernatant to human A2aR on HEK293 cells (FACS, MFI); conditions: supernatant with 1 μg/ml antibody; HEK293 overexpressing human A2aR; heavy chain (row) x light chain
human A2aR, sequence (P29274 whole entry): as above
Procedure: Briefly, HEK293 cells that stably overexpress human A2aR (HEK-hA2aR OCL, BPS Bioscience, Cat. 79381) were collected from fresh culture. Cells were then resuspended in FACS buffer (1×DPBS/1% FBS) at 10^6/ml concentration. One hundred microliters (100 μl) of cells were aliquoted into each well of a 96 well plates. After centrifugation, cell pellets in each well were then resuspended with 100 μl normalized supernatant samples containing 1 μg/ml humanized anti-A2aR monoclonal antibody variants collected from transfected Expi293 cell culture. The supernatants were mixed with the cells and incubated on ice for 1 hours. After washing the mixtures of the supernatants containing expressed antibodies and the A2aR-expressing cells with FACS buffer, one hundred microliters (100 μl) of 1:400 diluted PE-conjugated anti-human Fc secondary antibody (Jackson Immuno Research, Cat. 109-116-098) was added to each well followed by an incubation for 30 minutes on ice. After washes with FACS buffer, stained cells were resuspended in 150 μl of 7-AAD (Biolegend, Cat. 420404) diluted 1:100 in 1×DPBS buffer and incubate for 5 minutes in the dark at room temperature before FACS analysis. The mean fluorescence intensity (MFI) was obtained using Guava 11HT or 5HT (Luminex). Data was analyzed using Flowjo software.
As shown in Tables 22-24, exemplary humanized anti-A2aR antibodies bind to A2aR expressed on a cell surface. A greater MFI value means stronger binding of the exemplary antibody to A2aR expressed on a cell surface.

Row | MFI [3] [MFI] | MFI, binding to human A2aR on cell surface (3F8-12E9 derived) (human A2aR) | Molecule | also measured
1 | – | – | Cc1cc(-c2nnc(N)nc2-c2ccc(F)cc2)cc(Cl)n1 [AZD4635] | % of cells CD25+, CD4 T cells [1]: 48.8%; % of cells CD25+, CD8 T cells [1]: 26%; % of cells CD69+, CD4 T cells [1]: 48.1%; % of cells CD69+, CD8 T cells [1]: 49.1%; % of cells IFNγ+, CD4 T cells [2]: 3.41%; % of cells IFNγ+, CD8 T cells [2]: 13.3%; % of cells IFNγ+, NK cells [2]: 8.91%; % of cells IL-2+, CD4 T cells [2]: 10.4%; % of cells IL-2+, CD8 T cells [2]: 2.57%
2 | 110 | – | Hu3F8-H4/Hu3F8-L1 (antibody, human IgG1, V domains shown) VH: EVQLVQSGAEVKKPGASVKVSCKASGFTFTRYWMNWVRQAPGQGLEWIGRIDPSDSETHYNHKFWGRATLTVDKSTSTVYMELSSLRSEDTAVYYCLRSLYGKGDYWGQGTTVTVSS VL: DVVMTQSPLSLPVTLGQPASISCRSSQSIVHSNGNTYLEWFQQRPGQSPRRLIYKVSNRFSGVPDRFSGSGSGTDFTLKISRVEAEDVGVYYCYQGSHVPLTFGGGTKVEIK | –
3 | 147 | – | Hu3F8-H5/Hu3F8-L2 (antibody, human IgG1, V domains shown) VH: EVQLVQSGAEVKKPGASVKVSCKASGFTFTRYWMNWVRQAPGQGLEWIGRIDPSDSETHYNAKFWGRATLTVDKSTSTVYMELSSLRSEDTAVYYCLRSLYGKGDYWGQGTTVTVSS VL: DVVMTQSPLSLPVTLGQPASISCRSSQSIVHSNGNTYLEWYQQRPGQSPRRLIYKVSNRFSGVPDRFSGSGSGTDFTLKISRVEAEDVGVYYCYQGSHVPLTFGGGTKVEIK | –
4 | – | 64 | Hu3F8-H3/Hu3F8-L1: humanized anti-A2aR IgG1 FES antibody; HCVR SEQ ID NO:66, LCVR SEQ ID NO:84 (antibody, V domains shown) VH: EVQLVQSGAEVKKPGASVKVSCKASGFTFTRYWMNWVRQAPGQGLEWIGRIDPSDSETHYNHKFWGRATLTVDTSTSTVYMELSSLRSEDTAVYYCLRSLYGKGDYWGQGTTVTVSS VL: DVVMTQSPLSLPVTLGQPASISCRSSQSIVHSNGNTYLEWFQQRPGQSPRRLIYKVSNRFSGVPDRFSGSGSGTDFTLKISRVEAEDVGVYYCYQGSHVPLTFGGGTKVEIK | –
5 | 145 | – | Hu1B5-H2.1/Hu1B5-L1 (antibody, human IgG1, V domains shown) VH: EVQLVQSGAEVKKPGASVKVSCKTSGFTFTRFWMNWVRQAPGQGLEWIGRIDPYDSETQYNHKFWDRVTMTVDTSTSTVYMELSSLRSEDTAVYYCGRSLYGKGDYWGQGTTVTVSS VL: DVVMTQSPLSLPVTLGQPASISCRSSQSIVHSNGNTYLEWFQQRPGQSPRRLIYKVSNRFSGVPDRFSGSGSGTDFTLKISRVEAEDVGVYYCFQGSHVPLTFGGGTKVEIK | –
6 | – | 93 | Hu3F8-H3/Hu3F8-L2: humanized anti-A2aR IgG1 FES antibody; HCVR SEQ ID NO:66, LCVR SEQ ID NO:85 (antibody, V domains shown) VH: EVQLVQSGAEVKKPGASVKVSCKASGFTFTRYWMNWVRQAPGQGLEWIGRIDPSDSETHYNHKFWGRATLTVDTSTSTVYMELSSLRSEDTAVYYCLRSLYGKGDYWGQGTTVTVSS VL: DVVMTQSPLSLPVTLGQPASISCRSSQSIVHSNGNTYLEWYQQRPGQSPRRLIYKVSNRFSGVPDRFSGSGSGTDFTLKISRVEAEDVGVYYCYQGSHVPLTFGGGTKVEIK | –
7 | 158 | – | Hu3F8-H6/Hu3F8-L1 (antibody, human IgG1, V domains shown) VH: EVQLVQSGAEVKKPGESLRISCKASGFTFTRYWMNWVRQMPGKGLEWIGRIDPSDSETHYNHKFWGHATLSVDKSSSTVYLQWSSLKASDTAMYYCLRSLYGKGDYWGQGTTVTVSS VL: DVVMTQSPLSLPVTLGQPASISCRSSQSIVHSNGNTYLEWFQQRPGQSPRRLIYKVSNRFSGVPDRFSGSGSGTDFTLKISRVEAEDVGVYYCYQGSHVPLTFGGGTKVEIK | –
8 | – | 158 | Hu3F8-H6/Hu3F8-L1: humanized anti-A2aR IgG1 FES antibody; HCVR SEQ ID NO:70, LCVR SEQ ID NO:84 (antibody, V domains shown) VH: EVQLVQSGAEVKKPGESLRISCKASGFTFTRYWMNWVRQMPGKGLEWIGRIDPSDSETHYNHKFWGHATLSVDKSSSTVYLQWSSLKASDTAMYYCLRSLYGKGDYWGQGTTVTVSS VL: DVVMTQSPLSLPVTLGQPASISCRSSQSIVHSNGNTYLEWFQQRPGQSPRRLIYKVSNRFSGVPDRFSGSGSGTDFTLKISRVEAEDVGVYYCYQGSHVPLTFGGGTKVEIK | –
9 | 131 | – | Hu3F8-H4/Hu3F8-L2 (antibody, human IgG1, V domains shown) VH: EVQLVQSGAEVKKPGASVKVSCKASGFTFTRYWMNWVRQAPGQGLEWIGRIDPSDSETHYNHKFWGRATLTVDKSTSTVYMELSSLRSEDTAVYYCLRSLYGKGDYWGQGTTVTVSS VL: DVVMTQSPLSLPVTLGQPASISCRSSQSIVHSNGNTYLEWYQQRPGQSPRRLIYKVSNRFSGVPDRFSGSGSGTDFTLKISRVEAEDVGVYYCYQGSHVPLTFGGGTKVEIK | –
10 | – | 38 | Hu3F8-H2/Hu3F8-L2: humanized anti-A2aR IgG1 FES antibody; HCVR SEQ ID NO:65, LCVR SEQ ID NO:85 (antibody, V domains shown) VH: EVQLVQSGAEVKKPGASVKVSCKASGFTFTRYWMNWVRQAPGQGLEWMGRIDPSDSETHYNHKFWGRVTMTVDTSTSTVYMELSSLRSEDTAVYYCLRSLYGKGDYWGQGTTVTVSS VL: DVVMTQSPLSLPVTLGQPASISCRSSQSIVHSNGNTYLEWYQQRPGQSPRRLIYKVSNRFSGVPDRFSGSGSGTDFTLKISRVEAEDVGVYYCYQGSHVPLTFGGGTKVEIK | –
11 | 58 | – | Hu3F8-H5/Hu3F8-L1 (antibody, human IgG1, V domains shown) VH: EVQLVQSGAEVKKPGASVKVSCKASGFTFTRYWMNWVRQAPGQGLEWIGRIDPSDSETHYNAKFWGRATLTVDKSTSTVYMELSSLRSEDTAVYYCLRSLYGKGDYWGQGTTVTVSS VL: DVVMTQSPLSLPVTLGQPASISCRSSQSIVHSNGNTYLEWFQQRPGQSPRRLIYKVSNRFSGVPDRFSGSGSGTDFTLKISRVEAEDVGVYYCYQGSHVPLTFGGGTKVEIK | –
12 | – | 58 | Hu3F8-H5/Hu3F8-L1: humanized anti-A2aR IgG1 FES antibody; HCVR SEQ ID NO:68, LCVR SEQ ID NO:84 (antibody, V domains shown) VH: EVQLVQSGAEVKKPGASVKVSCKASGFTFTRYWMNWVRQAPGQGLEWIGRIDPSDSETHYNAKFWGRATLTVDKSTSTVYMELSSLRSEDTAVYYCLRSLYGKGDYWGQGTTVTVSS VL: DVVMTQSPLSLPVTLGQPASISCRSSQSIVHSNGNTYLEWFQQRPGQSPRRLIYKVSNRFSGVPDRFSGSGSGTDFTLKISRVEAEDVGVYYCYQGSHVPLTFGGGTKVEIK | –
13 | – | 147 | Hu3F8-H5/Hu3F8-L2: humanized anti-A2aR IgG1 FES antibody; HCVR SEQ ID NO:68, LCVR SEQ ID NO:85 (antibody, V domains shown) VH: EVQLVQSGAEVKKPGASVKVSCKASGFTFTRYWMNWVRQAPGQGLEWIGRIDPSDSETHYNAKFWGRATLTVDKSTSTVYMELSSLRSEDTAVYYCLRSLYGKGDYWGQGTTVTVSS VL: DVVMTQSPLSLPVTLGQPASISCRSSQSIVHSNGNTYLEWYQQRPGQSPRRLIYKVSNRFSGVPDRFSGSGSGTDFTLKISRVEAEDVGVYYCYQGSHVPLTFGGGTKVEIK | –
14 | – | 131 | Hu3F8-H4/Hu3F8-L2: humanized anti-A2aR IgG1 FES antibody; HCVR SEQ ID NO:67, LCVR SEQ ID NO:85 (antibody, V domains shown) VH: EVQLVQSGAEVKKPGASVKVSCKASGFTFTRYWMNWVRQAPGQGLEWIGRIDPSDSETHYNHKFWGRATLTVDKSTSTVYMELSSLRSEDTAVYYCLRSLYGKGDYWGQGTTVTVSS VL: DVVMTQSPLSLPVTLGQPASISCRSSQSIVHSNGNTYLEWYQQRPGQSPRRLIYKVSNRFSGVPDRFSGSGSGTDFTLKISRVEAEDVGVYYCYQGSHVPLTFGGGTKVEIK | –
